# Results published in the supplement of paper PMC10065799, “High-throughput profiling of sequence recognition by tyrosine kinases and SH2 domains using bacterial peptide display” (eLife, 2023).
# Biological target: Fes (UniProt P07332)
# Experiment: phosphorylation enrichment, bacterial display (enrichment ratio); higher = better substrate or ligand; peptides without Tyr show the background
# 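Note: 11-residue human phosphosite peptides and single-mutation variants displayed on the E. coli surface, counted by deep sequencing, each peptide's frequency after selection divided by its frequency in the unselected input library; frequency after pTyr selection over input frequency; kinase dosed for 20-30% of maximal phosphorylation in three min.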
# Chain of Fes (P07332 whole entry, looked up): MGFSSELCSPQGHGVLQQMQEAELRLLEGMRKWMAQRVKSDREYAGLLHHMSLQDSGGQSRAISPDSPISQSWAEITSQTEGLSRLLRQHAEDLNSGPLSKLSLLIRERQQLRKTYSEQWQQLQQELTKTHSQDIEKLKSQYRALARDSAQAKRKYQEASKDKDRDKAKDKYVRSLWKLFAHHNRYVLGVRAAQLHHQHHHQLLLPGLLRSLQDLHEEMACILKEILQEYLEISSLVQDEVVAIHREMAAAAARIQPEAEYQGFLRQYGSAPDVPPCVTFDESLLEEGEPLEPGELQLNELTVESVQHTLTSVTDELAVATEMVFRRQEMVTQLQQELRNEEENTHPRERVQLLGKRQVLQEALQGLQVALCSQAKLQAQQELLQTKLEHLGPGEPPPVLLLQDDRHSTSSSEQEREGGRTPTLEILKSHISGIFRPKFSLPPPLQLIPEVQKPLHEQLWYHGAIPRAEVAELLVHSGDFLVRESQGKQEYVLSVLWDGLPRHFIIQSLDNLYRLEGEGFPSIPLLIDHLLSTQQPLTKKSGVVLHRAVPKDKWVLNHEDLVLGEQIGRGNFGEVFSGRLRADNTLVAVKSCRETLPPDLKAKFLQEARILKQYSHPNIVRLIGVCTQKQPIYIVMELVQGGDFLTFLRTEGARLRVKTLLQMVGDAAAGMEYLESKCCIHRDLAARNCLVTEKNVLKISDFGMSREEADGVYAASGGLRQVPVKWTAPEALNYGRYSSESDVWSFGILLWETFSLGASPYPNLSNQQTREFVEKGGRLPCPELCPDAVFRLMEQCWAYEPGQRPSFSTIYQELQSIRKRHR
row,Sequence,phosphorylation enrichment
1,RSDSTYRMSAT [NHS_Y1532_S1531T],0.581
2,SQQTYYPVSNM [ABCD1_Y181_R182P],0.68
3,IRDENYGEGSS [ACO2_Y665_G661R],0.936
4,HNLFSYPTKFE [MYO3A_Y1396_H1400Y_YF],1.29
5,KLSFSYGRALQ [ALDOB_Y302],0.994
6,ALAQKYHGGGG [HBB_Y146_H144Q],0.491
7,QKTGDYFDLFG [PTPN11_Y62_N58K_YF],1.04
8,AKKMKYFEGVS [PRKDC_Y682_I680M],0.559
9,RNIQQYNSFVS [PRKAR1A_Y373],0.743
10,RRGMPYGGLGD [TGM1_Y312_R315L],0.663
11,FIRKDYEACKA [BBS4_Y48_YF],0.865
12,TESNNYIYTTL [FAM83B_Y637_K640T],0.898
13,WQQQSYLGSGI [CTNNB1_Y30_D32G],0.61
14,LQLLGYRPVFS [CHST6_Y358_YF],1.42
15,YISLIYTNYEA [GSTP1_Y109],1.23
16,DRLASYLDKMR [KRT17_Y98_V102M],0.912
17,NSVLVYRNGDP [DCDC2_Y22_K17N],0.678

row,Sequence,phosphorylation enrichment
1,WAFNLYDINKY [KCNIP3_Y174_D179Y],1.24
2,GPGLVYGVANK [FLNB_Y1833],0.689
3,KNNDGYTDYAE [MCFD2_Y135_I136T],1
4,GTGTAYLCGVK [ALPL_Y117_A114G],0.754
5,LEDPMYDIIRD [RP9_Y142_H137L],2.32
6,PFAEPYADFGG [APBA1_Y187_S184A_YF],1.2
7,VRFMEYETQVK [TARDBP_Y155_T153M],0.981
8,DDHFTYSRFPW [LY75_Y888_YF],1.07
9,MRALIYNSSTV [PLEKHA7_Y243_A248V],0.824
10,ILNANCMAKRL [GLDC_Y839_Y839C],0.628
11,QDRTFYESVRT [SPEN_Y633_YF],1.04
12,MACDRYVAICS [OR8D4_Y123],0.841
13,LFCLHYFHRTF [SRD5A2_Y91_V89L],1.93
14,RGNKEYKEEKR [LENG1_Y96_E97K],0.861
15,ASKEPYFVRCI [MYO1D_Y585_YF],1.77
16,SFTDPYAQPSL [KMT2D_Y2378_P2382S_YF],0.806

# Biological target: Fyn (UniProt P06241)
# Experiment: as above
# Chain of Fyn (P06241 whole entry, looked up): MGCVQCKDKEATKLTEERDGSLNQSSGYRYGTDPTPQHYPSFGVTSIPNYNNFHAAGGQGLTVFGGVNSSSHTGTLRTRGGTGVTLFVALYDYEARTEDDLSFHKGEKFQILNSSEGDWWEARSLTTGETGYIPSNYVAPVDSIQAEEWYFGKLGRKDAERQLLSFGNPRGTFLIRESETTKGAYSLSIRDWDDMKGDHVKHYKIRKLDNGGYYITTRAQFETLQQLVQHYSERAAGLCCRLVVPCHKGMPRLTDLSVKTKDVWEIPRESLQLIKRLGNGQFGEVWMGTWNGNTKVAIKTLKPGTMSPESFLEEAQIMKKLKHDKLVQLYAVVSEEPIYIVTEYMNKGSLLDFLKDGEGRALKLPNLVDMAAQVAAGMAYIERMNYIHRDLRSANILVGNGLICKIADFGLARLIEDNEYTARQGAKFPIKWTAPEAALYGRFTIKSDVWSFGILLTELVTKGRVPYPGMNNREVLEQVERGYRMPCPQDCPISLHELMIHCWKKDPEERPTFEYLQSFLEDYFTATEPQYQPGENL
row,Sequence,phosphorylation enrichment
1,RSDSTYRMSAT [NHS_Y1532_S1531T],0.528
2,SQQTYYPVSNM [ABCD1_Y181_R182P],3.77
3,IRDENYGEGSS [ACO2_Y665_G661R],0.421
4,HNLFSYPTKFE [MYO3A_Y1396_H1400Y_YF],0.565
5,KLSFSYGRALQ [ALDOB_Y302],0.388
6,ALAQKYHGGGG [HBB_Y146_H144Q],0.335
7,QKTGDYFDLFG [PTPN11_Y62_N58K_YF],0.971
8,AKKMKYFEGVS [PRKDC_Y682_I680M],0.419
9,RNIQQYNSFVS [PRKAR1A_Y373],0.648
10,RRGMPYGGLGD [TGM1_Y312_R315L],0.503
11,FIRKDYEACKA [BBS4_Y48_YF],0.445
12,TESNNYIYTTL [FAM83B_Y637_K640T],8.53
13,WQQQSYLGSGI [CTNNB1_Y30_D32G],0.372
14,LQLLGYRPVFS [CHST6_Y358_YF],0.451
15,YISLIYTNYEA [GSTP1_Y109],3.72
16,DRLASYLDKMR [KRT17_Y98_V102M],0.751
17,NSVLVYRNGDP [DCDC2_Y22_K17N],0.443

row,Sequence,phosphorylation enrichment
1,WAFNLYDINKY [KCNIP3_Y174_D179Y],1.83
2,GPGLVYGVANK [FLNB_Y1833],1.59
3,KNNDGYTDYAE [MCFD2_Y135_I136T],0.463
4,GTGTAYLCGVK [ALPL_Y117_A114G],0.435
5,LEDPMYDIIRD [RP9_Y142_H137L],7.34
6,PFAEPYADFGG [APBA1_Y187_S184A_YF],0.72
7,VRFMEYETQVK [TARDBP_Y155_T153M],0.384
8,DDHFTYSRFPW [LY75_Y888_YF],4.83
9,MRALIYNSSTV [PLEKHA7_Y243_A248V],0.714
10,ILNANCMAKRL [GLDC_Y839_Y839C],0.351
11,QDRTFYESVRT [SPEN_Y633_YF],1.21
12,MACDRYVAICS [OR8D4_Y123],0.529
13,LFCLHYFHRTF [SRD5A2_Y91_V89L],1.07
14,RGNKEYKEEKR [LENG1_Y96_E97K],0.399
15,ASKEPYFVRCI [MYO1D_Y585_YF],0.622
16,SFTDPYAQPSL [KMT2D_Y2378_P2382S_YF],0.481
